{
  "source": "patent US20020055130A1",
  "about": "“Method and product for regulating apoptosis” (National Jewish Center for Immunology and Respiratory …, priority 1997, published 2002)",
  "molecules": {"B1": {"name": "p35: baculovirus protein with broad inhibitory activity to ICE/FLICE-like proteases (protein, UniProt P08160 1-299, looked up)", "Early 35 kDa protein": "MCVIFPVEIDVSQTIIRDCQVDKQTRELVYINKIMNTQLTKPVLMMFNISGPIRSVTRKNNNLRDRIKSKVDEQFDQLERDYSDQMDGFHDSIKYFKDEHYSVSCQNGSVLKSKFAKILKSHDYTDKKSIEAYEKYCLPKLVDERNDYYVAVCVLKPGFENGSNQVLSFEYNPIGNKVIVPFAHEINDTGLYEYDVVAYVDSVQFDGEQFEEFVQSLILPSSFKNSEKVLYYNEASKNKSMIYKALEFTTESSWGKSEKYNWKIFCNGFIYDKKSKVLYVKLHNVTSALNKNVILNTIK"}},
  "key": {"MEKK1 [1]": {"tested_on": "MEKK1", "test": "Immunoblot of cleavage fragments of transfected HA-tagged MEKK1 in HEK293 cells", "assay_type": "cell-based, Human", "conditions": "co-expression with MEKK1; 6 independent experiments", "source_text": "The full length cDNA encoding mouse MEKK1 was modified by addition of the HA-tag sequence ([…]) (SEQ ID NO: 12) at its NH2-terminus and inserted into the expression plasmid pCEP4 (Invitrogen), resulting in plasmid MEKK1.cp4. The MEKK1 sequences DTVD (amino acids 871-874) and DEVE (amino acids 857-860) in MEKK1.cp4 were substituted with alanines using a PCR strategy. The resulting plasmids were named DTVD_A.cp4 and DEVE_A.cp4. The cDNAs for CrmA (Pickup et al., 1986), p35 (Cartier et al., 1994), JNK1-APF (Dérijard et al., 1994) and JNK2-APF (Kallunki et al., 1994) were subcloned in pCEP4 in which the hygromycin resistance gene had been removed, resulting in plasmids CrmA.cp_, p35.cp_, JNK1_APF.cp and JNK2_APF.cp_. Plasmid pCDNA—3.cp4 is the result of the ligation of pCEP4 and pCDNA-3.\n200-400 μg cell lysate protein was subjected to SDS-9% PAGE and transferred to nitrocellulose membranes. Blots were performed exactly as described (Widmann et al., 1995). To detect HA-tagged proteins, the mouse monoclonal antibody 12CA5 (Babco) was used as the primary antibody, followed by a rabbit anti-mouse antibody (Cappel). HRP-conjugated protein A at a 1/5000 dilution (Zymed) and ^125I-protein A at a 1/500 dilution (Dupont NEN) were then used for enhanced chemiluminescence (ECL) detection and for quantification using the phosphorimager. To detect MEKK1, 3 different ploclonal antisera were used as primary antibodies, followed by ECL detection using HRP-protein A (see above). These sera were generated by injecting rabbits with GST proteins fused with different portions of the MEKK1 protein."}, "HEK293 cells": {"tested_on": "HEK293 cells", "test": "MEKK1 staining and TdT-mediated dUTP incorporation (DNA fragmentation) in transfected cells", "assay_type": "cell-based, Human", "procedure": "Human embryonal kidney 293 cells (HEK293) stably expressing the EBNA-1 protein from Epstein-Barr virus (Invitrogen) were grown in Dulbecco's modified Eagle's medium (DMEM) supplemented with 100 U/ml penicillin/streptomycin and containing 10% bovine calf serum (BCS). The cells were transfected using lipofectamine (Gibco).\nCells were grown on glass coverslips and transfected using lipofectamine. Two days after transfection, the medium was removed and the cells were fixed in 2% paraformaldehyde, 3% sucrose in phosphate buffered saline (PBS) for 10 min at room temperature. Following three washes with PBS, the cells were permeabilized for 10 min with 2% Triton-X100 in PBS. After three PBS washes, the cells were blocked with filtered cultured medium for 15 min. The coverslips were then incubated 1 hour in TdT reaction mix (200 mM potassium cacodylate, 25 mM Tris.HCl, pH 6.6, 250 μg/ml BSA, 5 mM CoCl2, 0.25 U/μl TdT [Boehringer], 10 μM biotin-dUTP [Boehringer]) at 37° C. in a humidifed atmosphere. […] The coverslips were then washed 6× over a 30 min period with PBS and incubated 1 hour at room temperature with a 1/1000 dilution in filtered culture medium of a donkey anti-rabbit, Cy^3-conjugated, antibody (Jackson Immunological) mixed with 5 μg/ml streptavidin conjugated with FITC (Jackson Immunological). The coverslips were washed 6× with PBS and incubated overnight in PBS before being mounted in 20 mg/ml o-phenyldiamine-diHCl (Sigma) in 0.1 M Tris pH 8.5, 90% glycerol. Images were taken using a Leica DMRXA microscope and analyzed with the SlideBook v2.0 software (Intelligent Imaging Innovations, Denver). The subcellular localization of endogenous MEKK1 observed with the anti-COOH-terminal MEKK1 antibody was identical to that observed with a second antibody recognizing the NH2-terminal portion of the MEKK1 protein."}, "ERK2": {"tested_on": "ERK2", "test": "ERK2 immunoprecipitation kinase assay, transfected HEK293 cells", "assay_type": "cell-based, Human", "conditions": "co-expression with MEKK1", "procedure": "(§1) Lysis buffer (70 mM β-glycerophosphate, 1 mM EGTA, 100 μM Na3VO4, 1 mM DTT, 2 mM MgCl2, 0.5% Triton-X100, 20 μg/ml aprotinin) was added to cells 15-24 hours after transfection. Cellular debris was removed by centrifugation at 8,000xg for 5 min. Protein concentration was normalized by Bradford assay using BSA as standard.\nERK2 was immunoprecipitated as described above for the JNK isoforms using the ERK2 (C-14) antibody (Santa Cruz Biotechnology). The beads were washed twice with 1 ml lysis buffer and twice with 1 ml lysis buffer without Triton-X100. […] The samples were washed thrice for 5 min each in 75 mM phosphoric acid and once for 2 min in acetone, air-dried, and their radioactivity determined in a β counter."}, "MEKK1 [2]": {"tested_on": "MEKK1", "test": "SEK1 K→M phosphorylation by MEKK1 immunoprecipitates", "assay_type": "biochemical, mouse", "conditions": "HEK293 lysates; 95-012 antibody", "procedure": "MEKK1 was immunoprecipitated from cell lysates (200-500 μg) with the antibodies raised against specific sequences of MEKK1 or the 12CA5 antibody that recognizes the HA-tag sequence."}, "c-Jun kinase (JNK)": {"tested_on": "c-Jun kinase (JNK)", "test": "c-Jun kinase assay, transfected HEK293 cells", "assay_type": "cell-based, Human", "conditions": "co-expression with MEKK1", "procedure": "as §1\nc-Jun kinase (JNK) activity was measured using a solid phase kinase assay in which glutathione S-transferase-c-Jun(1-79) (GST-Jun) bound to glutathione-Sepharose 4B beads was used to affinity-purify JNK from cell lysates as described (Gardner and Johnson, 1996; Hibi et al., 1993). Alternatively, JNKI or JNK2 were immunoprecipitated with isoform specific antibodies (Santa Cruz Biotechnology) and GST-Jun used as substrate in an in vitro kinase assay (Hibi et al., 1993). Quantitation of the phosphorylation of GST-Jun was performed with a Phosphorlmager."}},
  "data": [
    {"molecule": "B1", "values": [
      {"measurement": "amount of fragment A", "setting": "MEKK1 [1]", "result": "unchanged"},
      {"measurement": "diminution of the amount of fragment B", "setting": "MEKK1 [1]", "result": 90, "unit": "%"},
      {"measurement": "expressing cells showing DNA breaks", "setting": "HEK293 cells; co-expression with ΔMEKK1", "result": 10, "unit": "%"},
      {"measurement": "cells showing some DNA fragmentation", "setting": "HEK293 cells; cotransfected with MEKK1", "result": "about 5%"},
      {"measurement": "effect on activation of ERK2 by MEKK1", "setting": "ERK2", "result": "unaffected"},
      {"measurement": "SEK1 phosphorylation by COOH-terminal antibody immunoprecipitates", "setting": "MEKK1 [2]", "result": "reached the same level of phosphorylation observed when the 12CA5 antibody was used"},
      {"measurement": "effect on activation of the JNKs by MEKK1", "setting": "c-Jun kinase (JNK)", "result": "unaffected"}
    ]}
  ]
}
